Measurements as given in patent publication US7067268.
No end group written: not given here.

Columns and labels:
P2L-2Ca [1] = assay: competitive EIA: unlabeled antigen varied against HRP-labeled 19P2 ligand (17-31) on P2L-2C
P2L-3Ta [2] = assay: competitive EIA against HRP-labeled 19P2 ligand (12-25); sentence prints 'P2L-1Ta' but stands in the P2L-3Ta passage and cites FIG. 7(b)
P2L-1Ta [3] = assay: competitive EIA: unlabeled antigen varied against HRP-labeled 19P2 ligand (12-25) on P2L-1Ta
P2L-3Ta [4] = assay: competitive EIA: unlabeled antigen varied against HRP-labeled 19P2 ligand (12-25) on P2L-3Ta
[5] = target: these antibodies (P2L-1Ta, P2L-3Ta, P2L-2Ta and P2L-4Ta); assay: competitive EIA against HRP-labeled 19P2 ligand (12-25); P2L-1Ta, P2L-3Ta, P2L-2Ta, P2L-4Ta (FIG. 9)
P2L-2Ca [6] = assay: competitive EIA on P2L-2C; ratio of the antigen concentrations giving (B/B0)=0.5
P2L-1Ca = assay: competitive EIA: unlabeled antigen varied against HRP-labeled 19P2 ligand (17-31) on P2L-1C
P2L-3Ta [7] = assay: competitive EIA against HRP-labeled 19P2 ligand (12-25); 'higher' as printed, though 25 nM against 4 nM points to lower
P2L-1Ta [8] = assay: competitive EIA on P2L-1Ta; FIG. 7(a)

Row | Binder | IC50 (P2L-2Ca [1]) | IC50 (P2L-3Ta [2]) | fold of the reactivity against human 19P2 ligand (1-31) (P2L-3Ta [2]) | IC50 (P2L-1Ta [3]) | IC50 (P2L-3Ta [4]) | antigen concentration detected, (B/B0)=0.9 (P2L-1Ta [3]) | IC50 [5] | fold of the reactivity against bovine 19P2 ligand (1-31) (P2L-2Ca [6]) | fold of the reactivity against rat 19P2 ligand (1-31) (P2L-2Ca [6]) | IC50 (P2L-1Ca) | fold of the reactivity against human 19P2 ligand (1-31) (P2L-3Ta [7]) | fold of the reactivity against human 19P2 ligand (1-31) (P2L-1Ta [8])
1 | TPDINPAWYASRGIRPVGRF-NH2 [Human 19P2 ligand (12-31)] | – | 7 nM | 0.5 fold | 4 nM | – | – | – | – | – | – | – | –
2 | SRAHQHSMETRTPDINPAWYTGRGIRPVGRF-NH2 [Rat 19P2 ligand (1-31)] | 200 nM | 25 nM | – | 1 nM | – | – | – | – | – | – | 6 fold | 4 fold

The remaining binders from weak to strong by IC50 (P2L-2Ca [1]), led by results:

Row | IC50 (P2L-2Ca [1]) | IC50 (P2L-3Ta [2]) | fold of the reactivity against human 19P2 ligand (1-31) (P2L-3Ta [2]) | IC50 (P2L-1Ta [3]) | IC50 (P2L-3Ta [4]) | antigen concentration detected, (B/B0)=0.9 (P2L-1Ta [3]) | IC50 [5] | fold of the reactivity against bovine 19P2 ligand (1-31) (P2L-2Ca [6]) | fold of the reactivity against rat 19P2 ligand (1-31) (P2L-2Ca [6]) | IC50 (P2L-1Ca) | fold of the reactivity against human 19P2 ligand (1-31) (P2L-3Ta [7]) | fold of the reactivity against human 19P2 ligand (1-31) (P2L-1Ta [8]) | Binder
3 | 50 nM | – | – | – | – | – | – | – | – | – | – | – | SRAHQHSMEIRTPDINPAWYAGRGIRPVGRF-NH2 [Bovine 19P2 ligand (1-31)]
4 | 1.5 nM | – | – | 4 nM | 4 nM | 0.1 nM | 3 to 50 nM | 33 fold | 130 fold | 3 nM | – | – | SRTHRHSMEIRTPDINPAWYASRGIRPVGRX (C-terminal amide) [Human 19P2 ligand (1-31)]
